Data taken from publication PMC7581431.

Target: Lip-NKD-HisC (human (identical sequence in mouse and human)) (UniProt Q969G9)
Assay: aggregation and co-aggregation assay read by PAGE; purified proteins in 15 mM acetate, 150 mM NaCl, pH 5.0 mixed in different ratios; after 10 min 1 M Tris-HCl pH 8.0 added to 200 mM; after 20 min boiled 10 min in LDS sample buffer; PAGE under denaturing and reducing conditions

Sequence of Lip-NKD-HisC (human (identical sequence in mouse and human)) (Q969G9 whole entry): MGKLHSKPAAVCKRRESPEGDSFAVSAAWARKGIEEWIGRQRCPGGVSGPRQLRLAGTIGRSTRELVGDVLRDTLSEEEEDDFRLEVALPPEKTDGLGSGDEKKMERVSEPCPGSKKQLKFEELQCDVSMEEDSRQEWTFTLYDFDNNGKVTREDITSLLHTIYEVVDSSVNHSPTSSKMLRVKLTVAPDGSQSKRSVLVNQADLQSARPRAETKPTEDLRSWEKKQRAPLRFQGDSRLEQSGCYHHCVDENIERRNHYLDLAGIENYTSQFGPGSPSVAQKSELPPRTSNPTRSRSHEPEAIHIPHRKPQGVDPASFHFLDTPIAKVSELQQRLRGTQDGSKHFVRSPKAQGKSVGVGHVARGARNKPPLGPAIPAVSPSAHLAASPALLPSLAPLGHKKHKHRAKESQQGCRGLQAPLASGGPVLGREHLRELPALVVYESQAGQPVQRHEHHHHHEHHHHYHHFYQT

KHVHHHYIHHHA (domain or fragment) [MBP-Axin2-HisC]
molecules per core (molecules per core): < 4
